Key:
[1] = target: BcerB, TOMM dehydrogenase (B-protein) from Bacillus cereus 172560W (Bacillus cereus 172560W); experiment: fluorescence polarisation
[2] = target: McbB/D (Escherichia coli) (UniProt P23184); conditions: cited from earlier work
UniProt P23184, sequence (P23184 whole entry, chain 1 of 2): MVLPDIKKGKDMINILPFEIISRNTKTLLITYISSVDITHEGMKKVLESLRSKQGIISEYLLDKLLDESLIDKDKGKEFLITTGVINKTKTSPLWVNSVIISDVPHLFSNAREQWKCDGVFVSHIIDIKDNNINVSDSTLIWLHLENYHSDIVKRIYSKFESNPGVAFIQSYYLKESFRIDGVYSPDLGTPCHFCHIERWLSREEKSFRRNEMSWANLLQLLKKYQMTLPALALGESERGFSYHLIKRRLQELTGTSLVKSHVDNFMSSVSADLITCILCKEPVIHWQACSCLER
UniProt P23184, sequence (P23186 whole entry, chain 2 of 2, further chain): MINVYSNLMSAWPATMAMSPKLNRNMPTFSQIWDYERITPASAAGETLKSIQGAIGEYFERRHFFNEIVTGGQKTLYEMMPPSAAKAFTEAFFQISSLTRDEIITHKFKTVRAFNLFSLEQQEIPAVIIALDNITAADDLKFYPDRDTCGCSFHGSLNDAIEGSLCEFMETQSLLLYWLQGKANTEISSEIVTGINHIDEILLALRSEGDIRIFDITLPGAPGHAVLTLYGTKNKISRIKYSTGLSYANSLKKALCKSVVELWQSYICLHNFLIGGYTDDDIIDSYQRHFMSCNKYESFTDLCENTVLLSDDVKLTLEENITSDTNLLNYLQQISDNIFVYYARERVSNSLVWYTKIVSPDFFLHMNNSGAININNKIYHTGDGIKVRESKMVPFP

Substance | Kd [1] [nM] | Kd [2] [nM]
Balh cyclodehydratase (BalhC/D) from Bacillus sp. Al Hakam (complex) | 1700 | 
McbC (from UniProt P23185) |  | 1800

From article PMC3928670
